According to patent US7074589:

Key:
SRp20 = biological target: T1, SRp20 (UniProt P84104)
T1 sequence: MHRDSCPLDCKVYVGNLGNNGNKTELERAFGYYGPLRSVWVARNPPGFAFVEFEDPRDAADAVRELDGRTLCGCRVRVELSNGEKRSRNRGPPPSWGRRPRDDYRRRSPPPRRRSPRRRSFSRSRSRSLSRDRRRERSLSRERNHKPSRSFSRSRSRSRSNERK

SRp30a = SRp30a (UniProt Q6PDM2)
SRp30b = SRp30b (UniProt Q62093)
SRp40 = biological target: T2, SRp40 (UniProt O35326)
T2 sequence: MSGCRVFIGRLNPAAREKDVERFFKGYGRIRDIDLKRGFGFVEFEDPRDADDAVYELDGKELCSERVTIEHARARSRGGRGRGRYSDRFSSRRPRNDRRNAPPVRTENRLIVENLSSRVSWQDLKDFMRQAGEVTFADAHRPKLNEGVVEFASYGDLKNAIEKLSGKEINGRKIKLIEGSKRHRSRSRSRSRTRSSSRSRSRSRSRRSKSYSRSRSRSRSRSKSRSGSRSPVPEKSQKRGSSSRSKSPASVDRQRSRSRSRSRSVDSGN

SRp55 = biological target: T3, SRp55 (UniProt Q3TWW8)
T3 sequence: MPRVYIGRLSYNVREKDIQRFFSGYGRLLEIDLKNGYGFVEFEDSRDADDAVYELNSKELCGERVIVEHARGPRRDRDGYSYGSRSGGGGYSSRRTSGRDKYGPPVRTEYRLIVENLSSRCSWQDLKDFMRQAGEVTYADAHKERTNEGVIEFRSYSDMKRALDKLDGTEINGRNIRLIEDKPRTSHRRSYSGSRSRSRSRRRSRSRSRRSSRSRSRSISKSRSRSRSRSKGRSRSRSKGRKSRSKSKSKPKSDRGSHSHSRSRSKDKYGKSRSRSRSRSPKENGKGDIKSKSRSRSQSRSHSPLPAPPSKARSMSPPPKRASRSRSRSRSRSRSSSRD

Sequence of SRp30a (Q6PDM2 2-248): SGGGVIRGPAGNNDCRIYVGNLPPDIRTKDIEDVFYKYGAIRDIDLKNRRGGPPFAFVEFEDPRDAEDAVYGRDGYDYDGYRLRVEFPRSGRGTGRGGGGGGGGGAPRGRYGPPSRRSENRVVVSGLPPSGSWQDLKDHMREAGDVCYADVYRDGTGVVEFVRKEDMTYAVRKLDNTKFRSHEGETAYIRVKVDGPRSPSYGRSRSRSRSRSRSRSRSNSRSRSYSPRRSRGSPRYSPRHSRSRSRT
Sequence of SRp30b (Q62093 2-221): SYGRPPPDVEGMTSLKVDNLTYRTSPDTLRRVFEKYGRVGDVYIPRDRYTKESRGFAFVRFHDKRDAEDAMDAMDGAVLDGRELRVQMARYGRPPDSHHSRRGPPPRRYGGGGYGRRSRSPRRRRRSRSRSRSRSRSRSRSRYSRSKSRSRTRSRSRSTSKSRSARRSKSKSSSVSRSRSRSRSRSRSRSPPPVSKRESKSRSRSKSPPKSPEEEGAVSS

In the case of GST-mCLK3 fusion protein, the “phosphorylation of SR proteins, in vitro kinase assay with gamma-32P-ATP” value (“phosphorylation of SR proteins” for short) (SRp20) is reported as “All mCLK kinases were able to phosphorylate SRp2O, SRp3Oa and to a lesser extent SRp4O and SRp55”, the “phosphorylation of SR proteins” value (SRp30a) is reported as “All mCLK kinases were able to phosphorylate SRp2O, SRp3Oa and to a lesser extent SRp4O and SRp55” and the “phosphorylation of SR proteins” value (SRp30b) is reported as “mCLK2 and mCLK3 phosphorylated both with almost equal efficiency”. The “phosphorylation of SR proteins” value (SRp40) was “All mCLK kinases were able to phosphorylate SRp2O, SRp3Oa and to a lesser extent SRp4O and SRp55” and the “phosphorylation of SR proteins” value (SRp55) was “All mCLK kinases were able to phosphorylate SRp2O, SRp3Oa and to a lesser extent SRp4O and SRp55”.
For GST-mCLK2 fusion protein, the “phosphorylation of SR proteins” value (SRp20) was “All mCLK kinases were able to phosphorylate SRp2O, SRp3Oa and to a lesser extent SRp4O and SRp55”, the “phosphorylation of SR proteins” value (SRp30a) was “All mCLK kinases were able to phosphorylate SRp2O, SRp3Oa and to a lesser extent SRp4O and SRp55” and the “phosphorylation of SR proteins” value (SRp30b) was “mCLK2 and mCLK3 phosphorylated both with almost equal efficiency”. The “phosphorylation of SR proteins” value (SRp40) was “All mCLK kinases were able to phosphorylate SRp2O, SRp3Oa and to a lesser extent SRp4O and SRp55” and the “phosphorylation of SR proteins” value (SRp55) was “All mCLK kinases were able to phosphorylate SRp2O, SRp3Oa and to a lesser extent SRp4O and SRp55”.
GST-mCLK4 fusion protein was tested, and the “phosphorylation of SR proteins” value (SRp20) was “All mCLK kinases were able to phosphorylate SRp2O, SRp3Oa and to a lesser extent SRp4O and SRp55”, the “phosphorylation of SR proteins” value (SRp30a) was “All mCLK kinases were able to phosphorylate SRp2O, SRp3Oa and to a lesser extent SRp4O and SRp55” and the “phosphorylation of SR proteins” value (SRp30b) was “mCLK1 and mCLK4 phosphorylated SRp3Oa (upper band) more strongly than SRp3Ob”. The “phosphorylation of SR proteins” value (SRp40) was “All mCLK kinases were able to phosphorylate SRp2O, SRp3Oa and to a lesser extent SRp4O and SRp55” and the “phosphorylation of SR proteins” value (SRp55) was “All mCLK kinases were able to phosphorylate SRp2O, SRp3Oa and to a lesser extent SRp4O and SRp55”.
